Paper PMC5899673

B1: SPIN (Staphylococcal Peroxidase INhibitor) from S. aureus strain Newman (natural protein)
chain: KVYSQNGLVLHDDANFLEHELSYIDVLLDKNADQATKDNLRSYFADKGLHSIKDIINKAKQDGFDVSKYEHVK

These molecules were tested against Native human myeloperoxidase (MPO) isolated from purulent sputum (human) (UniProt P05164) (assay: SPR).
Chain of UniProt P05164 (P05164 165-745): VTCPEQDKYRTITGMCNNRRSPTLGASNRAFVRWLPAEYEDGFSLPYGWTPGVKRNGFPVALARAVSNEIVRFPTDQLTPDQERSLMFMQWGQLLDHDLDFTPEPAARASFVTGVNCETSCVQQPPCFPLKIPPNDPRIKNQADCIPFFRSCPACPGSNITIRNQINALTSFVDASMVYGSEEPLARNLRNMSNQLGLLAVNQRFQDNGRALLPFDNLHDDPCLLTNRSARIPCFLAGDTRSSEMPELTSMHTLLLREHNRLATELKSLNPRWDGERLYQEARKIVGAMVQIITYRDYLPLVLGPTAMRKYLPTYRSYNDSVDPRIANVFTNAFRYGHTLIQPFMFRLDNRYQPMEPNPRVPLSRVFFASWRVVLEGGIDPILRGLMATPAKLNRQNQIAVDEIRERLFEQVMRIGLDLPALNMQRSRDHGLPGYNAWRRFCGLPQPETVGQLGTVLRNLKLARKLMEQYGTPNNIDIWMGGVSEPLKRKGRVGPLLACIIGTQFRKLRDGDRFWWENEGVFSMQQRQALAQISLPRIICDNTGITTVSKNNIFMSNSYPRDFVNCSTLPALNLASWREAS

| Molecule | Kd | koff | kon |
| --- | --- | --- | --- |
| SPIN-agnetis (SPIN homolog from S. agnetis) (natural protein) | 41.8 nM | 0.00236 s⁻¹ | 56400 M⁻¹ s⁻¹ |
| SPIN-delphini (SPIN from Staphylococcus delphini) (natural protein) | 310 nM | 0.00334 s⁻¹ | 10800 M⁻¹ s⁻¹ |
| SPIN-intermedius (SPIN homolog from S. intermedius) (natural protein) | 984 nM | 0.00334 s⁻¹ | 3500 M⁻¹ s⁻¹ |
| SPIN-schleiferi (SPIN homolog from S. schleiferi) (natural protein) | 230 nM | 0.00252 s⁻¹ | 11200 M⁻¹ s⁻¹ |
| B1 | 15.9 nM | 0.00316 s⁻¹ | 201000 M⁻¹ s⁻¹ |
